According to the supplement of paper PMC12338614:

B1: library; numbered along this chain (parent)
chain: MEVVDPQQLGMFTEGELMSVGMDTFIHRIDSTEVIYQPRRKRAKLIGKYLMGDLLGEGSYGKVKEVLDSETLCRRAVKILKKKKLRRIPNGEANVKKEIQLLRRLRHKNVIQLVDVLYNEEKQKMYMVMEYCVCGMQEMLDSVPEKRFPVCQAHGYFCQLIDGLEYLHSQGIVHKDIKPGNLLLTTGGTLKISDLGVAEALHPFAADDTCRTSQGSPAFQPPEIANGLDTFSGFKVDIWSAGVTLYNITTGLYPFEGDNIYKLFENIGKGSYAIPGDCGPPLSDLLKGMLEYEPAKRFSIRQIRQHSWFRKKHPPAEAPVPIPPSPDTKDRWRSMTVVPYLEDLHGADEDEDLFDIEDDIIYTQDFTVPGQVPEEEASHNGQRRGLPKAVCMNGTEAAQLSTKSRAEGRAPNPARKACSASSKIRRLSACKQQ

Variants of: B1
Assay: STK11 functional score (HeLa growth suppression), rescaled enrichment; synonymous median = 1, nonsense median = 0 (normalised score)
Conditions: with HeLa; variant type: missense
Experimental: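 Deep mutational scan (TileSeq/POPCode codon randomisation) of full-length codon-optimised STK11 cDNA integrated at a Bxb1 landing pad (AAVS1) in HeLa cells. Restoring functional STK11 suppresses HeLa proliferation. Variant frequencies were measured by NGS before and after about two weeks of growth. The error-corrected enrichment log-ratio was rescaled so that synonymous median = 1 and nonsense median = 0, scores above 1 were compressed, and codon-level and three biological replicate scores were combined; error is the bootstrapped standard error. Scale: synonymous median = 1, nonsense median = 0; below 0.5 = damaging.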

STK11 functional score, by site and new letter:
L50: V 0.846 | W 0.44 | A 1.52 | D 1.39 | T 1.29 | G 0.949 | C 1.41 | I 1.62 | P 0.95 | S 1.09 | M 0.814 | H 1.08 | R 1.47
L72: T 1.44 | R 0.386 | N 0.264 | D 1.51 | K 1.08 | G 1.44 | S 0.585 | M 0.649 | V 1.16 | I 1.19 | W 1.08 | Y 1.04 | Q 1.26 | A 0.81 | H 0.0684
C73: L 1.19 | F 0.572 | P 0.227 | M 1.7 | A 1.69 | S 1.38 | T 1.6 | I 0.566 | E 1.7 | R 1.21 | G 1 | W 0.426 | V 1.55 | Y 0.412 | D 1.49
G56: I 0.188 | L 0.359 | T 0.231 | S 0.788 | Y -0.102 | E 1.13 | V 0.273 | F 0.171 | R 0.136 | H 0.0953 | P 0.136 | M 1 | W -0.159 | C 0.475 | Q -0.0947 | A 0.838
Y60: W 1.58 | M 1.64 | C 0.482 | V 0.694 | L 0.748 | I 1.23 | N 0.674 | S 1.48 | R 1.51
G52: V 1.1 | S 1.53 | F 1.63 | M -0.407 | I 1.64 | A 0.893 | L 1.37 | C 1.49
Y49: W 1.01
G58: W 0.24 | L -0.188 | M 0.219 | F 0.0123 | C 0.374 | Y -0.201 | A 0.935 | S 0.988 | E 1.04 | I -0.159 | N 0.559 | V -0.308 | P 0.174 | R -0.318
S59: N 1.45 | Q 1.63 | F 0.672 | E 1.42 | R 1.5 | H 1.09 | D 0.937 | W 0.719 | T 1.32 | A 1.19 | G 1.65 | I 1.31 | L 1.56 | V 1.55 | C 0.952
L54: G 1.22 | I 0.71 | D 1.14 | M 1.1 | N 1.64 | P 1.21 | V 0.645 | A 0.975 | H 1.15 | Y 1.47 | R 0.812 | F 0.99 | W 0.575 | T 1.47 | K 1.61 | S 1.2
E57: F 0.821 | W 0.873 | K 1.12 | M 1.26 | Y 0.95 | R 1.13 | S 1.17 | H 1.53 | I 1.15 | V 0.968 | L 0.946 | T 1.69 | A 1.15 | P 1.62 | Q 1.06 | G 1.08 | D 0.893
E70: P -0.12 | L 1.03 | A 1.43 | G 0.582 | I 1.54 | Y 1.14 | S 0.896 | D 1.05 | V 1.28 | Q 0.703 | C 1.39 | R 1.67
K64: R 1.4 | L 1.54 | C 0.813 | N 0.93 | P 0.931 | A 1.59 | V 1.38 | Q 1.58 | S 1.53 | Y 1.39 | W 1.39 | T 1.08 | G 0.436
L55: I 1.39 | A 0.122 | Q 1.59 | M 0.938 | D 1.31 | P 1.23 | R 1.21 | F -0.181 | V 0.737 | G 1.53 | S 0.693 | H 1.43 | W 0.491 | C 1.43
V66: T 1.12 | L 1.1 | Y 1.12 | K 1.4 | G 0.814 | I 0.557 | A 1.4 | E 0.0829 | D 0.0679 | F 0.608 | N 0.393 | P 0.219 | S 0.975 | C 1.46 | M -0.0689 | Q 1.08 | W 0.62 | R -0.0455 | H 1.37
D68: V 0.366 | L 0.441 | Q 0.949 | S 1.29 | Y -0.0799 | R 1.07 | W 0.944 | A 0.846 | G 1.08 | N 1.31 | P 1.08
K62: N 1.6 | R 1.61 | C 1.4 | L 1.35 | G 1.23 | I 1.35 | S 1.39 | T 1.7 | Y 1.31 | V 1.61 | A 1.7 | W 1.38 | D 1.61 | Q 1.56
G61: Y 0.11 | P 0.916 | L 0.588 | V 0.688 | E 0.195 | M 0.0916 | R 0.216 | A 1.35 | Q 0.913 | C 1.13 | S 0.916 | W 0.248 | H 1.41
S69: G 1.69 | K 1.31 | H 0.304 | V 0.644 | W 0.118 | P 1.04 | E 1.23 | Q 0.0756 | A 1.14 | R 1.1 | L 1.24 | M 0.689
T71: D 1.46 | Q 1.58 | N 0.961 | V 1.04 | M 0.604 | G 1.48 | W 1.13 | E 1.37 | P 0.376 | F 1.17 | L 0.974 | R 0.849 | A 1.48 | C 1.33 | S 0.618 | I 1.11
M51: Y 1.62 | H 1.68 | S 0.844 | W 0.189 | I 1.16 | K 1.32 | A 1.45 | Q 1.66 | G 1.1 | V 0.725 | L 0.806 | R 1.16 | T 1.21 | P 1.66
E65: D 1.34 | H 1.36 | R 0.846 | C 1.07 | L 0.5 | G 0.154 | P 0.657 | Q 1.18 | M 0.457 | Y 1.05 | W 1.36 | N 1.06 | V 0.734 | F 1.22 | I 0.756 | S 1.55
R74: H 1.6 | F 0.896 | K 1.11 | I 1.15 | C 1.11 | A 0.0507
D53: M 0.483 | P 1.52 | H 1.23 | R 1.58 | Y 1.38 | C 1.1 | W 0.204 | L 0.555 | E 0.779 | S 1.51 | V 0.606 | G 0.726 | A 1.07
L67: D 0.672 | T 0.53 | A 0.924 | G 0.725 | R 0.719 | W 0.675 | H 0.361 | P 0.0421 | Y 0.0744 | V 0.884
V63: G 0.711 | M 0.802 | L 0.458 | R -0.0566 | N 1.14 | S 1.27 | W 0.213 | D -0.044 | E 0.189 | C 1.4 | Q 0.451 | I 1.45
